Test: yeast display, Sf9 membrane polyspecificity reagent, FACS + sequencing; frameworks hold sequencing errors
Method in brief: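 Nanobodies from a synthetic yeast display library (Saccharomyces cerevisiae BJ5465), induced 36–48 hours with galactose, were stained 1 hour at 4 °C with 10% biotinylated, detergent-solubilized Sf9 membrane reagent, enriched on streptavidin microbeads, then FACS-sorted. Anti-HA (expression) and streptavidin (reagent binding) fluorescence set low and high (top ~1%) gates. Polyreactivity labels come from the gate of origin. Genes were colony-PCR amplified, MiSeq 2 × 250 sequenced and filtered by CDR length.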

Row | Sequence | polyreactivity (PSR sort gate)
1 | QVQLVESVGGLVQAGGSLRLSCAASGRIFRYYAMGWYRQAPGKERELVAAISISGGRTYYADSVKGRFSISRDNAKNTVYLQMNSLKPEDTAVYYCNADPYWYDRDKKYDYWGQGTQVTVSS | high polyreactivity
2 | QVQLVESVGGLVQAGGSLRLSCAASGRIFYTYAMGWYRPAPGKERELVAAISSRTGSTYYADSVKGRFTISRDNAKNTVYLQMNSLKPEDTAVYYCNAYRLRYGYDYWGQGTQVTVSS | high polyreactivity
3 | QVQLVESVGGLVQAGGSLRLSCAASGRPFKKYAMGCYRQAPGKERALVAAITGSGGSTYYADAVKGRFTSSRDNAKKTVYLQMNSLKPEDTAVYYCAAYAYGVWHSHDGGNYWGQGTQVTVSS | low polyreactivity
4 | QVQLVESVGGLVQAGGSLRLSCAASGRTFARYAMGWERQAPGQERELVAAISRNTGSTYADSVKGRFTISRDNAKNTVSLQMNSLKPEDTAVYYFASSWRGQDPYYRYVGRDYWGQGTQVTVSS | high polyreactivity
5 | QVQLVESVGGLVQAGGSLRLSCAASGRTFFKYAMGWYRQAPGKERELVAAITASGGSTYYADSVKGRFTISRDNAKNTVYLQMNSLKPEDTAVYYCAARWRSVFWEYYYWGQGTQVTLSS | high polyreactivity
6 | QVQLVESVGGLVQAGGSLRLSCAASGRTFGVYAMGWYRQAPGKERELVAAISRRAGNTYYADSVKGRFTISRDNAKNTVYLQMNSLKPEDTAVYYCAAYFSRQYGYWGLGTQVTVSS | high polyreactivity
7 | QVQLVESVGGLVQAGGSLRLSCAASGRTFLNYAMGWYRQAPGKEREFVAAITWRVGTTYYADSVKGRFTISRDNAKNTVYLQMNSLKPEDTAVYYCNAVTARQSSQGEMDYWGQGTQVTVSS | high polyreactivity
8 | QVQLVESVGGLVQAGGSLRLSCAASGRTFQYNAMGWYRPAPGKERELVAAISSSGGSTYYADSVKGRFTISRDNAKNTVYLQMNSLKPEDTAVYYCNAYSQSWNFYGDGDYWGQGTQVTVSS | low polyreactivity
9 | QVQLVESVGGLVQAGGSLRLSCAASGRTFRTYTMGWYRQAPGKERELVAAIRSSGGRTYYADSVKGRFTISRDNAKNTVYLQMNSLKPEDTAVYYCAREYRGALHYYYCGQGTQVTVSS | high polyreactivity
10 | QVQLVESVGGLVQAGGSLRLSCAASGRTFRYYTMGWYRQAPGKERELVASISWSGGSTYYADSVKGRFTISRDNAKNTVYLQMNSLKPEDTAVYYCNAVYGYRGVTNMDYWGQGTQVTVSS | high polyreactivity
11 | QVQLVESVGGLVQAGGSLRLSCAASGSIFAYNTMGWYRQAPGKERELVAAIRSRGGSTYYADSVKGRFTISRDNAKNTVYIQMNSLKPEDTPVSSCNAVGRARTLGSNTYGYWGQGTQVTVSS | high polyreactivity
12 | QVQLVESVGGLVQAGGSLRLSCAASGSIFDRYAMGWYRQAPGKERELVAAISTGGSTNYADSVKGRFTISRDNAKNTVYLQMNSLKPEDTAVYYCAARYLYRMYYWGQGTQVTVSS | low polyreactivity
13 | QVQLVESVGGLVQAGGSLRLSCAASGSIFRAYAMGWYRQAPGKERELVAAISRSGDSTYYADSVKGRFTISRDNAKNTVYLQMNSLKPEDTADYYCAAQRKPYVRPSGPYKRRDYWGQGTQVTVSS | high polyreactivity
14 | QVQLVESVGGLVQAGGSLRLSCAASGSIFRRYAMGWYRQAPGKERELVAGISSGGYTNYADSVKGRFTISRDNAKNTVYLQMNSLKPEDTAVYYCAAKQYRYVRYRPVDYWGQGTQVTVSS | high polyreactivity
15 | QVQLVESVGGLVQAGGSLRLSCAASGSIFTRNTMGWYRQAPGKERELVAAISGGGSSTYYADSVKGRFTISRDNAKNTVYLQMNSLKPEETAVYYCAASLSRNYGYACYEYWGQGTQVTVSS | high polyreactivity
16 | QVQLVESVGGLVQAGGSLRLSCAASGSIFVNNAMGWYRQAPGKERELVAAISSRSSRTFYADSVKGRFTISRDNAKNTVYLQINSLKPEDTAVYYCNAVGGRKFGEYDYWGQGTQVTVSS | high polyreactivity
17 | QVQLVESVGGLVQAGGSLRLSCAASGSIFYQYAMGWYRQAPGKERELVAAISRSGGSTYYADSVKGRFTISRDIAKNTVYLQMNSLKPEDTAVYYCAADQKSLRMYYWGQGTQVTVSS | high polyreactivity
18 | QVQLVESVGGLVQAGGSLRLSCAASGSNFSVYVMGWYRQAPGKERELVADISRSGGSTYYADSVKGRFTISRDNAKNTVYLQMNSLKPEDTAVYYCAASLYLSWLFEYWGQGTQVTVSS | low polyreactivity
19 | QVQLVESVGGLVQAGGSLRLSCAASGSTFKYNAMGWYRQAHGKERELVAAISRRGGSTYYADSVKGRFTISRDNAKNTVYLQMNSLKPDETAVYYCAADIIRPVTVDYWGQGTQVTVSS | high polyreactivity
20 | QVQLVESVGGLVQAGGSLRLSCAASGSTFNQYAMGWYRHPPGKERELVAAISWSGGRTYYADSVKGRFTISRDNAKNTVYLQMNSLKPEDTSVYYCNKLTRDGRKEDYWGQGTQVTVSS | high polyreactivity
21 | QVQLVESVGGLVQAGGSLRLSCAASGSTFTDYDMGWYRQAPGKERELVADISSGGSTYYADSVKGRFTISRDNAKNTVYLQMNSLKPEDTAVYYCNTDLRLVYRTKGFISWGYDYWGQGTQVTVSS | low polyreactivity
22 | QVQLVESVGGLVQAGGSLRLSCAASGSTFYIYAMRWYRQAPGKERELVARISGSGGSTYYADSVKGRFTISRDNAKNTVYLQMNSLKPEDTAVYYCAADAIYKYYQYYAFPYYRYDYWGLGTQVTVSS | low polyreactivity

Row | Sequence | polyreactivity (PSR sort gate)
23 | QVQLVESVGGLVQAGGSLRLSCAASGSTFYSYSMGWYRQEPGKERELVAAISWNGGSTYYADSVKGRFTISRDNAKNTVYFQMNSLKPEVTAVYYCAARGGYPYWRYYRFYKMDYWGQGTQVTVSS | low polyreactivity
24 | QVQLVESVGGLVQAGGSLRLSCAASGSTSSYYTMGWYRQAPGKERELVAYADSVKGRFTISRDNAKNTVYLQMNSLKPEDTAVYYCAAPRTYYSELTSPYDYWGQGTQVTVSS | low polyreactivity
25 | QVQLVESVGGLVQAGGSLRLSCAASGTLATYAMGWYRQAHGKERELVAAIRYSDGRTYYADSVKGRFTISRDNAKNTVYLLMNSLKPEDTAVYYCAASFRGRGKKLDYWGQGTQVTVSS | low polyreactivity
26 | QVQLVESVGGLVQAGGSLRLSCAASGYTFYRYAMGWYRQAPGKESELVAGISRDGGSTYYADSVKGRFTISRDNAKNTVYLQMNSLKPEDTAVYYCAADKTRYRLGRDYWGQGTQVTVSS | low polyreactivity
27 | QVQLVESVGGLVQAGGSLRLSCADSGFTIYSYAMGWYRQAPGKERELVAAITQSGGSTYYADSVKGRFTISRDNAKNTVYLQMNSLKPEDTAVYYCAAVIYIDYDYGYYYWGQGTQVTVSS | low polyreactivity
28 | QVQLVESVGGLVQAGGSLRLSCADSGSTFYFNAMGWYRQAPGKEREFVAAIEWSGGSTYYADSVKGRFTISRDNAKNTVYLQMNSLKPEDTAVYYCAAPYHYYGNSVGYADYDYWGQGTQVTVSS | low polyreactivity
29 | QVQLVESVGGLVQAGGSLRLSCAGSGFTCGAYAMGWSRQAPRKERELVAAINTRGGSRYYADSVKGRFTISRDNAKNTVYLQMNSLKPEDTAVYYCAASVYFWYDYWGQGTQVTVSS | high polyreactivity
30 | QVQLVESVGGLVQAGGSLRLSCAPSGRIFGKYAMGWYRQAPGKERELVADITWGGGSTNYADSVKGRFTISRDNAKNTVYLQMNSLNPDDTAVYYCATGFYYYLTKTIPYEYEYWGQGTQVTVSS | low polyreactivity
31 | QVQLVESVGGLVQAGGSLRLSCASSVRTFYRYAMGWYRQAPGKERELVAAISRGGRTNYADSVKGRFTISRDNAKNTVYLQMNSLKPEDTAVYYCAVSNYGALYDYWGQGTQVSVSS | high polyreactivity
32 | QVQLVESVGGLVQAGGSLRLSCDASGYIFKNYAMGWYIQAPGKERELVAAINWSGGNTYYADSVKGRFTISRDNAKNTVYLQMNSLKPEDTAVYYCNAVSSLRSYGYNYCGQGTQVTVSS | low polyreactivity
33 | QVQLVESVGGLVQAGGSLRLSCPASGSTFTDYAMGWYRQAPGKERELVAANSWSGGSTYYADSVKGRFTISRDNAKNTVYLQMNSLKPEDTAVYYCAFRYHGYDYWGQGTQVTVSS | high polyreactivity
34 | QVQLVESVGGLVQAGGSLRLSCSASGRTFSYYTMGWYRQAPGKERELVADINTSVGSTDYADSVKGRFTISRDTAKNTVYLQMNSLKPEDTAVYYCQLIRRGHDYWGQGTQVTVSS | high polyreactivity
35 | QVQLVESVGGLVQAGGSLRLSCSASGSIFDYYAMGWYRQAPGKQRELVAAITSGGSTYYADSVKGRFTISRDNAKNTVYLQMNSLNPEDTAVYYCNATYYYWLSYDYWGQGTQVSVSS | low polyreactivity
36 | QVQLVESVGGLVQAGGSLRLSCSASGSIFWYNAMGWYRQAPGKERELVAAISRGGSTKYADSVKGRFTISRDNAKNTVYLQMNSLKPEDTAVYYCAARYYRSSQGWTYDYWGKGTQVTVSS | low polyreactivity
37 | QVQLVESVGGLVQAGGSLRLSGAASGRTFSSYALGWYRQAPGKVRELVAGIRLSTGSTYYADSVKGRFTISRDNAKNTVYLQMNSLQPEDTAVYYCNARGWAYSGAKSYYWGQGTQVTLSS | high polyreactivity
38 | QVQLVESVGGLVQAGGSLRLSSAASGLIFNEYVMGWYRQAPGKERELVAGISRIGGSTYYADSVKGRFTISRDNAKNTVYLQMKSLKQEDTAVYYCARPNLLSGDYWGQGTQVTVSS | high polyreactivity
39 | QVQLVESVGGLVQAGGSLRLTCAASGIIFAWYVMGWYRQAPGKERELVAAITQSGGSTFYADSVKGRFTISRDNAKNTVYLQMNSLKPEDTAVYYCNTEDFVNVPEMDSWGQGTQVTVSS | low polyreactivity
40 | QVQLVESVGGLVQAGGSLRLTCAASGRILGYYAMGWYRQAPWKERELVAAISRAGSTNYADSVKGRFTISRDNAKNTVNLQMNSLKPEHTAVYYCAARQYRRGYNYWGQGTQVTVSS | high polyreactivity
41 | QVQLVESVGGLVQAGGTHRLSCSASGSTFFYYAMGWYRQAPGKERELVAAISSSGGRTYYADSVKGRFTISRDTAKNTVYLQMNSLKPEDTAVYYCAARDYRQSRYEYWGQGTEVTVSS | high polyreactivity
42 | QVQLVESVGGLVQAGVSLRLRCAASGFIFWYYAMGWYRQATGKDRELVASISARDGSTYYADSVKGRFTISRYNAKNTVYLQMNSLKPEDTAVYYCNAVQRYPKYRMDYCGQGTQVTVSS | low polyreactivity
43 | QVQLVESVRGLDQAGGSLRLSCAASGSIFDSNAMGSYRQATGKERELVAAITGSGTSTYYADSVKGRFTISRDNAKNTVYLQMNILKPEDTAVYYCARDSLQVFYTYGSDDYWGQGTQVTVSS | low polyreactivity

Source: the nanobody polyreactivity screen of Harvey et al. (2022)
